Reference: the supplement of paper PMC9170038

Test system: K4 kissing-loop RNA reporter
Experiment: apparent KD of K4 kissing-loop reporter; higher = weaker reporter binding
Settings: Eterna round: R107
Protocol: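 RNA-MaP round R107: designed RNA switches with theophylline, tryptophan, arginine or FMN aptamers are transcribed on-chip within common flanks. They are titrated with a labelled K4 kissing-loop RNA reporter in RNA-MaP buffer (100 mM Tris pH 7.5, 80 mM KCl, 4 mM MgCl2), without ligand or with the indicated ligand. Median apparent KD per design.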

[1] = input ligand: theophylline 20 uM
[2] = input ligand: tryptophan 2.4 mM
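Further: bound reporter read as fluorescence of individual clusters on recovered sequencing chips by microscopy, with normalized cluster intensities fitted with a binding model.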

| Sequence | apparent KD of K4 kissing-loop reporter (input ligand: FMN 200 uM) [µM] | apparent KD of K4 kissing-loop reporter (input ligand: arginine 13.2 mM) [µM] | apparent KD of K4 kissing-loop reporter (input ligand: none) [µM] | apparent KD of K4 kissing-loop reporter [1] [µM] | apparent KD of K4 kissing-loop reporter [2] [µM] |
| --- | --- | --- | --- | --- | --- |
| CUUGGAAGGACGGCCGCCACUCGACGGAGUGAUGUUCCGUGUGGGUAGCGCAGUGAUGUUGUGUCGAGGACCGGGUCCUAGGAAU [Exclusion Tryptophan B GF 28] | 0.181 | 0.115 | 0.143 | 0.16 | 0.0777 |
| AAGUAAUGUAUAGAUUAUAUACAUUAAACAGAGGAUAUGCAUUAUUGCAGAAGGCUGAAUGCAGUGAUGUUGCAAUAAUUAUUUA [JR_SSFMNA_Sub002] | 0.0531 | 0.19 | 0.184 | 0.297 | 0.146 |
| AAAUAAAUCACGGCCGCCACUGUAAGUUGAAGUGAUGUUUCAAGAUAUAGUAUGUUUUAUAAUAUCAGGACCGGGUGAUUUUUAA [JR_SSTryptoB_Sub021] | 0.147 | 0.103 | 0.133 | 0.115 | 0.119 |
| GUGCAGUGAUGUUGCACGAGGAAAGACGAUACCAGCCGUAAAUAUGGCCCUUGGCAGCGUGGGCUAGCACAAAAUGUGCUAGUCU [Zareatza] | 0.127 | 0.109 | 0.116 | 0.107 | 0.0982 |
| CCGAAGAACCAGUGAUGUUGGUUGACUAGACAGGAUAUGAGCAACAUCAGAAGGGUCUGGCUUCGGGAGUGAGUCGCGCUGACUU [Reverigeed] | 0.26 | 0.192 | 0.319 | 0.254 | 0.314 |
| UGACAUUGCUCAGAUACCAGACAUGAGCAUCAGCCAUGUACCAAGAAAACGUACAUAAAUGUCCCUUGGCAGCUGAGCAAUGUCU [TheoBX 10] | 0.0835 | 0.0398 | 0.0599 | 0.089 | 0.0638 |
| UCUGGAGCAUAUGAUACCAGCAGUGAGAGAGAGGAAGUAUAGUGAUGUUAUAUGAGAGAAUGCCCUUGGCAGCGUGUGUAGUGGG [SSTheophylB.M] | 0.155 | 0.146 | 0.119 | 0.0945 | 0.107 |
| AAAAUAAACCAGUGAUGUUGGUGUCCGGAUACCAGCGAUAAUCAUCGCCCUUGGCAGCCGCGGACGUACAAAAUAAGUACGUCCU [MatMod 13 - Jieux - Same State - Theophylline A] | 0.457 | 0.271 | 0.346 | 0.31 | 0.256 |
| GUGCAGUGAUGUUGCACGAGGAAAGACGAUACCAGCCGUAAAUAAGGCCCUUGGCAGCGUAAGCUAGCAUAAAGUAUGCUAGUCC [Onarve] | 0.108 | 0.102 | 0.103 | 0.0771 | 0.0852 |
| AAACGCUUGAAUAACAAGCGAAAUAAAAUUCGAGGACCGGUACGGCCGCCACUCGGGCUAACUGCGAGUGAUGUUCGAAAAUAAA [Mat - Mod of OpenEnded 3 - D17] | 0.156 | 0.191 | 0.257 | 0.405 | 0.0732 |
| UACAUUUUAUUAACACUAAAUACAACUGAAGGAGCGACAAUAAAGUCAGGUAGGUCGCAGAAUAAAUGAGUGAUGUUCAUUAUUG [JR_ExcArginiA_Sub016] | 0.0602 | 0.101 | 0.0638 | 0.0928 | 0.0512 |
| AAUAUCUAGUAUAUAUUUAAUAAAACAGAUACCAGUGAUAAUAGACACCCUUGGCAGCUGGACGAGUGAUGUUCGUAUAUAUUAA [JR_SSTheophyA_Sub007] | 0.0907 | 0.153 | 0.108 | 0.184 | 0.0668 |
| GUGCGGCUAGUGAUGUUGGUUGCGUGGGAAGGAGCGCAGAAACAUGCAGGUAGGUCGCCCACAUCUCUGAUAAAAGAUUAAUUCA [Riares] | 0.304 | 0.254 | 0.235 | 0.338 | 0.239 |
| UCCACGCUUAGAGGAUAUCGGAUUAGAGUGAUGUUCUAAAGACGCCCAGUGAUGUUGGAUGGUAUACGAGAAGGCUGUGGCGUGU [Same State FMN B GF5] | 0.219 | 0.539 | 0.551 | 0.622 | 0.41 |
| GGAGCAGUGAUGUUGCUUGUAAUGCAUUCAGAGGAUAUUCGUUUGGGAAGAAGGCUGAAUCGUUCUUCGAGUGAUGUUCGAGGAU [Same State FMN A GF 16] | 0.154 | 0.154 | 0.156 | 0.148 | 0.138 |
| GCUAUGGUAGGAAGGAGCGCGGACGAAAUUUAUCGAGUGAUGUUCGAAUAAUUAAAUAAAACGCAGGUAGGUCGCCUACUAUAGC [Arginine B K4 26] | 0.101 | 0.0975 | 0.0975 | 0.0955 | 0.0757 |
| AACUGUCAAGGCCAACAUUACUGAGGUGAUACCAGCAUCGAAAGAUGCCCUUGGCAGCACCGACUUGCAGUGAUGUUGCAAGUAA [BrourdMod 12 - Jieux - Exclusion - Theophylline A] | 0.329 | 0.266 | 0.333 | 0.37 | 0.287 |
| CAUGUGUCUAUUACGAUGGAUACAUAUACUGAGGAUAUCACAUUUAUGAGAAGGCAGUAAACUGCGAGUGAUGUUCGCAGUACGU [FMN A SS t8] | 0.159 | 0.204 | 0.214 | 0.316 | 0.248 |
| CUAUGAGUGAUGUUCGUAGGUUGGGCUUGGCAGGAUAUGGGAUCUUCCAGAAGGGCCGAUUCCGGCGAGUGAUGUUCGUUGGUCU [Exclusion FMN A GF30] | 0.0417 | 0.0421 | 0.0501 | 0.0432 | 0.0439 |
| GACACACUUUCAGGUGUCCAGUGACUGGAUACCAGCAUGGAAACAUGCCCUUGGCAGCCAGAACUGGAAGUGAUGUUUCCAGUAA [Theo A Mod Design7 (Brourd)] | 0.38 | 0.241 | 0.346 | 0.262 | 0.33 |
| UGACAUUGCUCAGAUACCAGACAUGAGCAUCAGCCAUGUGCCAACGUACAAAUAAUAAAUGUCCCUUGGCAGCUGAGCAAUGUCU [TheoBX 15] | 0.0674 | 0.0258 | 0.0482 | 0.0646 | 0.0599 |

| Sequence | apparent KD of K4 kissing-loop reporter (input ligand: FMN 200 uM) [µM] | apparent KD of K4 kissing-loop reporter (input ligand: arginine 13.2 mM) [µM] | apparent KD of K4 kissing-loop reporter (input ligand: none) [µM] | apparent KD of K4 kissing-loop reporter [1] [µM] | apparent KD of K4 kissing-loop reporter [2] [µM] |
| --- | --- | --- | --- | --- | --- |
| UUUGGAGAGGGAAGGAGCGUGAAAGAGAAAGAAUAUAGUGAUGUUAUAUAGAAGAAAGAAUCACAGGUAGGUCGCCCGGAGGAGG [SSArgB.D] | 0.707 | 0.865 | 0.661 | 0.99 | 0.575 |
| AAUAAGGAGUGAUGUUCCAAGUGAUGUUAACGAGGACCGGUACGGCCGCCACUCGAUACGGCCGGAAAGUAAGAUAAACUACAAU [Same State - Tryptophan A (Freestyle 3)] | 0.0705 | 0.0513 | 0.0608 | 0.0559 | 0.0546 |
| UAGGCCGCAUACAUUAGAUAAGGUACCGAUACCAGCCUCGCACCAGGCCCUUGGCAGCGGCAUCAAAUGGGUAGUGAUGUUACCU [theeternabot_exclusion_KL_Theo_A_20] | 0.139 | 0.135 | 0.159 | 0.144 | 0.136 |
| UGAGGAGAGGGAAGGAGCGUGAAAGAGAAAGAAUAUAGUGAUGUUAUAUAGAAGAAAGAAUCACAGGUAGGUCGCCCGGAGGAGG [SSArgB.B] | 0.278 | 0.742 | 0.479 | 0.669 | 0.284 |
| AAACUUGCAGUGAUGUUGCAAGUAGGUGAUACCAGCAUCGAAAGAUGCCCUUGGCAGCACCAACACUGUAAGUAAGUAUCACCAA [(H1)-(H2)-(T1)-(T2)-(H)'-(T)'_Design2] | 0.11 | 0.12 | 0.117 | 0.139 | 0.105 |
| GAUGUAGAGGCGGCCGCCACUAGUGAUGUUAGUGAUGUUUGAUACUGUAUAUAUCGGCGUGUAGAUAGGACCGGGCCUGAUGGAG [dbbdmullin] | 0.276 | 0.165 | 0.214 | 0.225 | 0.201 |
| AGCUUGGGUUCGGCCGCCACUCCACCCUUAGAAGUGAUGUUUCUCAUGCAUACGCGUCGUCAGAUGAGGACCGGGAAUGUAGUUG [theeternabot_exclusion_KL_Trp_B_24] | 0.209 | 0.444 | 0.354 | 0.351 | 0.214 |
| AAAUUUAAUAUAUUUAAAUAAAUAUGUGAUACCAGACAUUUAUAAGUCCCUUGGCAGCACAAUGCAGUGAUGUUGCUUAUAAUAA [JR_SSTheophyA_Sub017] | 0.0856 | 0.114 | 0.0888 | 0.192 | 0.0735 |
| UAACAGUCUACGGCCGCCACUGACAAUCGGCAAGCAACAUGUGGGUGCGUAGUGAUGUUACAUAUCAGGACCGGGUAAGACAAAU [theeternabot_sameState_KL_Trp_B_32] | 0.327 | 0.392 | 0.235 | 0.345 | 0.438 |
| ACCACCAGCCGCACGAUACACGGGCAUUACCGAGGACCGGUACGGCCGCCACUCGCCCGCACGCUGGAUCGAGUGAUGUUCGAUC [theeternabot_sameState_KL_Trp_A_15] | 0.358 | 0.334 | 0.384 | 0.371 | 0.326 |
| AAUUUACAAUAAUCAUUUAAAGGAUCAGAAGGAGCGUGUUAUAACACAGGUAGGUCGCUGAGCGAGUGAUGUUCGCUAUAUACAA [JR_ExcArginiA_Sub002] | 0.0763 | 0.0977 | 0.0908 | 0.0998 | 0.0645 |
| AUUUUUUUGUCAGGAUAUUAGUGUGCGUUUGGUUUGUUAGUGAUGUUGAUAUUUGGUUUAUGUAUUUAAGAAGGGAUUUAGCGGU [dhbbtemullin] | 0.557 | 0.48 | 0.562 | 0.582 | 0.357 |
| UGAUAGGACAGAAGGAGCGGGAGUGAUGUUCCCAAUAGGAGGUCUAGCAAAGCUGGACCCUCCCAGGUAGGUCGCUGUCCUAUCU [ArgBX 3 #SwitchBubble #StaticStem] | 0.102 | 0.115 | 0.0961 | 0.115 | 0.108 |
| AAUGUACAAGUGAUGUUUGUACUUUCCGAAGGAGCGUCUAAUAAGACAGGUAGGUCGCGGAUACUCUAAAUAAUCAGGUCAUUGA [#06 K4 Arginine A Exclusion] | 0.0899 | 0.089 | 0.0798 | 0.0806 | 0.0774 |
| UGGAGUUGACGAAAAGUCAACUCCUGAGAUACCAGUGACGAAAGUCACCCUUGGCAGCUCACUGGCAGUGAUGUUGCUAAAUAAA [KL-SSTheo-A2] | 0.0573 | 0.0514 | 0.122 | 0.0635 | 0.0326 |
| AAGUGAUGUUGUAGUGAUGUUGUGAUGUUGCAGGAUAUAUAGUGAUGUAGAAGGGUAAGUACUGUUUUUUUUUUUGAGUGAUGUU [ookooyzrmullin] | 0.101 | 0.0417 | 0.0784 | 0.0675 | 0.0887 |
| GCGGGCCAGACGGCCGCCACUCCGGGCAGUGAUGUUGCGAAUCUUCUACUAGAGUGAUGUUCUACGAGGACCGGGUCGGAACGCG [Exclusion Tryptophan B Gf 14] | 0.458 | 0.384 | 0.569 | 0.502 | 0.289 |
| GCGCGUCAUGUCAGCGGUGACACUGUCGAUACCAGCGCCGAAAGGCGCCCUUGGCAGCGACGUGCUGGAGUGAUGUUCCAGCGUG [#2 Exclusion - Theophylline A Attempt #25 (HarryS)] | 0.197 | 0.16 | 0.182 | 0.203 | 0.184 |
| AAGCAGUCUCUCGAAGCCAUCGAAGAUGGGCGAGGACCGGUACGGCCGCCACUCGGAGUGAUGUUCCGAAGACUGCAAAAUAAAA [MatMod 10 - Jieux - Exclusion - Tryptophan A] | 0.281 | 0.223 | 0.396 | 0.243 | 0.308 |
| AAAAUAAAGCAGUGAUGUUGCUUAUGAGAAGGAGCGCACGAAAGUGCAGGUAGGUCGCUCAGCCAAGUGGACGAAAACGUCCACA [#OpenEnded 10 #K4Early] | 0.112 | 0.122 | 0.123 | 0.144 | 0.0904 |
| GCAUCAUGCUACGAUACCAGAAGUUCCCUUUAGUGUAGUGAUGUUGCAGAUAUUGCUUACUUCCCUUGGCAGCGUUUGACGGGUA [theeternabot_sameState_KL_Theo_B_35] | 0.256 | 0.205 | 0.22 | 0.335 | 0.155 |
